The record followed here is patent US20180256687A1.

Experiment [1] addresses Protein tyrosine phosphatase receptor type gamma (PTPRG) (human) (UniProt P23470). Briefly: cell-based or functional assay.
The target in experiment [2] is PTP Receptor type C (PTPRC or CD45) (human) (UniProt P08575). The experiment in a line: cell-based or functional assay.
For experiment [3], the target named is JAK2 (Janus protein-tyrosine kinase 2) (human) (UniProt O60674). Briefly: negative-control pull-down on nickel gel; lysate of resting human monocytes; mean of 3 experiments.
The target is the same in experiment [4].

Read-outs that look alike come from different tables or passages of the source.

PTP Receptor type C (PTPRC or CD45) (human), sequence (P08575 26-1306 limits assumed): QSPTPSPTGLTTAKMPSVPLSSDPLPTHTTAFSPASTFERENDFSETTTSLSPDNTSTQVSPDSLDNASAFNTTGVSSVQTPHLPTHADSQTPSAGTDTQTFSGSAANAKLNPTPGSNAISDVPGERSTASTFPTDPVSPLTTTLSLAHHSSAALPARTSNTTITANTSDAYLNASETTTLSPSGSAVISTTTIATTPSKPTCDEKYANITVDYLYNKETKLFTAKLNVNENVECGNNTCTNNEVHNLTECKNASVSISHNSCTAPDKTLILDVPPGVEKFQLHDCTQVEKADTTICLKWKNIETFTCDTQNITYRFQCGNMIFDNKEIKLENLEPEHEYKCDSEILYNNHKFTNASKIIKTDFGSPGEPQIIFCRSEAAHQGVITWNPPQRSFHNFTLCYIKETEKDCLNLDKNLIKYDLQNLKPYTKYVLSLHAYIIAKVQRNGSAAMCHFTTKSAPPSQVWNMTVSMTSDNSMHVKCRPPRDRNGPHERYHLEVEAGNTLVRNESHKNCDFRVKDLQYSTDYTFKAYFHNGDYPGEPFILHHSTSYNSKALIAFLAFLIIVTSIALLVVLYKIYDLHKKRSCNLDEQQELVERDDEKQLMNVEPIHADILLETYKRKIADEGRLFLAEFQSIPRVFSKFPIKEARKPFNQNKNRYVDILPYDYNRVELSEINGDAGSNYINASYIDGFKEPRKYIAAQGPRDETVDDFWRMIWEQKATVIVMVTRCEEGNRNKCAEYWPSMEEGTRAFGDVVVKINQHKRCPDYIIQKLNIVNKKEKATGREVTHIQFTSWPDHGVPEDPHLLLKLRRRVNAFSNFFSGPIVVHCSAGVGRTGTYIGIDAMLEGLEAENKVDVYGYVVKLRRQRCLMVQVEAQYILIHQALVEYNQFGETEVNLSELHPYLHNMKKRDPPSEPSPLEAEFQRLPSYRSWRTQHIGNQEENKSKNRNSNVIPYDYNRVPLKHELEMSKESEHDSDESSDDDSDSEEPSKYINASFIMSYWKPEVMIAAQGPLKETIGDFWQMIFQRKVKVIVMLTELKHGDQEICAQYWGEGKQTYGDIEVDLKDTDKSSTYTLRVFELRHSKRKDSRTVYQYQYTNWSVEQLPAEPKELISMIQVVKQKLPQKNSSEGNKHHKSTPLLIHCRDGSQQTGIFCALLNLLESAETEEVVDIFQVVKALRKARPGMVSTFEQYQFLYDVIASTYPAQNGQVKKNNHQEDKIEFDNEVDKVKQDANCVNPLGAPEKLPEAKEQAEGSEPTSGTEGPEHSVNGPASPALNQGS

In turn, P1 (Penetratin 1) control peptide registered a phosphatase activity (pNPP, absorbance at 405 nm, percent fold increase over the blank) in monocyte membrane fractions, P1 control (percent fold increase over the blank) in experiment [1] of 16.

With “P1-WD Trojan peptide (Penetratin fused to the PTPRG wedge domain)”, in experiment [2], the phosphatase activity (pNPP, absorbance at 405 nm, percent fold increase over the blank) in PMN membrane fractions, P1-WD 50 micromolar (percent fold increase over the blank) worked out at 5.15; the phosphatase activity (pNPP, absorbance at 405 nm, percent fold increase over the blank) in PMN membrane fractions, P1-WD 100 micromolar (percent fold increase over the blank) is 8.54; the phosphatase activity (pNPP, absorbance at 405 nm, percent fold increase over the blank) in PMN membrane fractions, P1-WD 200 micromolar (percent fold increase over the blank) came out at 12.9. In addition, in experiment [1], the phosphatase activity (pNPP, absorbance at 405 nm, percent fold increase over the blank) in monocyte membrane fractions, P1-WD 50 micromolar (percent fold increase over the blank) stood at 34.6; the phosphatase activity (pNPP, absorbance at 405 nm, percent fold increase over the blank) in monocyte membrane fractions, P1-WD 100 micromolar (percent fold increase over the blank) turned out to be 86.7; the phosphatase activity (pNPP, absorbance at 405 nm, percent fold increase over the blank) in monocyte membrane fractions, P1-WD 200 micromolar (percent fold increase over the blank) was 109.

As to TAT-eGFP, the JAK2 band (anti-JAK2 Western blot of pull-down), mean stood at 4.4 in experiment [3] and 1.5 in experiment [4].
